In patent US20190225680A1 (NASCIENT, published 2019):
Residue numbers refer to the chain shown, from its start.

T1: human TNC rCd4-His-FBG (rat; human, UniProt P05540 207-386)
T1 construct: domain: domains 3 and 4; Biotinylated in the ELISA and HTRF assays; also called Hu TNC; human TNC FBG
T1 sequence: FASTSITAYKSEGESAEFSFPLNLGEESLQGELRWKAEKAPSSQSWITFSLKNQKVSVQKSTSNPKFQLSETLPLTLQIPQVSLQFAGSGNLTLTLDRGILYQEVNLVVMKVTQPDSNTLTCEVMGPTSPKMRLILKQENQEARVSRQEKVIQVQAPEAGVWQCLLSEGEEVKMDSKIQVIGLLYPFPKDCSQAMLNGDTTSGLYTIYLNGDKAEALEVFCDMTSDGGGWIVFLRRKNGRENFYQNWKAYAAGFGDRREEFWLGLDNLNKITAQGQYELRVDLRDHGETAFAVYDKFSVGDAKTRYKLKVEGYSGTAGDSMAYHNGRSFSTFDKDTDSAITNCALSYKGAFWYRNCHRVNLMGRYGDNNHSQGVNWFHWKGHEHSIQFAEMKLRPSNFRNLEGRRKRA

T2: human TNC rCd4-His-FBG (rat; human)
T2 sequence: T1 sequence

T3: mouse TNC rCd4-His-FBG (rat; mouse, UniProt P05540 207-386)
T3 construct: domain: domains 3 and 4; also called Mu TNC; mouse TNC FBG
T3 sequence: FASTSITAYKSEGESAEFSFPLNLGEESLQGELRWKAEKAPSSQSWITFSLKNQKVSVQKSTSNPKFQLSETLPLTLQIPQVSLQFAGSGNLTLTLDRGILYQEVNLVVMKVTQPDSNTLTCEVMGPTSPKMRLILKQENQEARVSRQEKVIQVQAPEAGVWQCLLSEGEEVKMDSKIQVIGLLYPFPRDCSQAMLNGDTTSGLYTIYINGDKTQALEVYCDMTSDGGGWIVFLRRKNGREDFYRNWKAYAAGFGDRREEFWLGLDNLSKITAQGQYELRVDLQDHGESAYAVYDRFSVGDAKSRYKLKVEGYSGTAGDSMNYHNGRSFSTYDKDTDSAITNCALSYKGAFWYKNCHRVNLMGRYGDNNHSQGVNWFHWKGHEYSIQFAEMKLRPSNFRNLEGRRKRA

B1: 165_13_D1 scFv (scFv, V domains shown)
VH: QVQLVESGGGLVQPGRSLRLSCAASGFTFDDYAMHWVRQAPGKGLEWVSGISGSGGSTYYADSVKGRFTISRDNAKNSLYLQMNSLRAEDTALYYCAKGTRGEGDTFDIWGQGTMVTVSS
VL: DIQMTQSPASLPTPVGDRVTITCRASQYIQGFLNWYQQKPGKAPKLLIYDASNLETGVPSRFSGSGSGTDFTLTISSLQPEDFATYYCQQSYSTPQTFGQGTKVDIK
notes: VH CDR3 GTRGEGDTFDI; not shown: scFv linker, domain order, and the tags of the pSANG10 vector (FLAG and others)
B2: 165_13_A4 scFv (scFv, V domains shown)
VH: B1 VH with G99D, T100K, R101Y, G102P, E103V, G104L
VL: B1 VL
notes: VH CDR3 DKYPVLDTFDI; not shown: scFv linker, domain order, and the tags of the pSANG10 vector (FLAG and others)
B3: 165_13_B3 scFv (scFv, V domains shown, not shown: small tags and cut ends)
VH: B1 VH with G99A, T100L, R101A, G102R, E103G, G104H
VL: B1 VL
notes: VH CDR3 ALARGHDTFDI
B4: 165_13_C3 scFv (scFv, V domains shown)
VH: B1 VH with G99S, T100Y, R101Q, G102S, E103D, G104E, T106A
VL: B1 VL
notes: VH CDR3 SYQSDEDAFDI; Antibody C3 of the B12 family; not shown: scFv linker, domain order, and the tags of the pSANG10 vector (FLAG and others)
B5: 165_13_B6 scFv (scFv, V domains shown)
VH: B1 VH with T100Q, R101K
VL: B1 VL
notes: VH CDR3 GQKGEGDTFDI; not shown: scFv linker, domain order, and the tags of the pSANG10 vector (FLAG and others)
B6: 165_13_E1 scFv (scFv, V domains shown, not shown: small tags and cut ends)
VH: B1 VH with G99D, T100I, R101S, G102A, E103V, G104M, T106V, F107P, D108Q, I109T
VL: B1 VL
notes: VH CDR3 DISAVMDVPQT; 48 is used
B7: 165_13_B1 scFv (scFv, V domains shown)
VH: B1 VH with G99V, T100M, R101S, G102S, E103M, G104E, T106A
VL: B1 VL
notes: VH CDR3 VMSSMEDAFDI; not shown: scFv linker, domain order, and the tags of the pSANG10 vector (FLAG and others)
B8: 165_13_D4 scFv (scFv, V domains shown)
VH: B1 VH with R101V
VL: B1 VL
notes: VH CDR3 GTVGEGDTFDI; not shown: scFv linker, domain order, and the tags of the pSANG10 vector (FLAG and others)
B9: 180_11_F5 scFv (scFv, V domains shown, not shown: small tags and cut ends)
VH: B1 VH with G99V, T100M, G102T, E103G, G104L
VL: B1 VL
notes: VH CDR3 VMRTGLDTFDI
B10: 2A5 scFv (scFv, V domains shown, not shown: small tags and cut ends)
VH: EVRLVQSGAEVKKPGASVKVSCKVSGYTLTELSMHWVRQAPGKGLEWMGGFDPEDGETIYAQKFQGRVTMTEDTSTDTAYMELSSLRSEDTAVYYCATAQKETYALTYWGQGTLVTVSS
VL: B1 VL with P14S, K45R, D50A, N53T, E55Q, T56D, S67Y, Q96W, D105E

Biological target: T1, human TNC rCd4-His-FBG
Experiment: HTRF competition, scFv supernatant, competitor d2-labelled B12 IgG, biotinylated human rCd4-His-FBG
Protocol: An HTRF-based competition assay was developed to screen for antibody variants with improved binding to human TNC FBG.
All samples and reagents were prepared in assay buffer (50 mM NaPO₄, 0.1% BSA, 0.4 M KF, pH 7.0) at 4× the stated concentration. 5 μl of each reagent was subsequently added to low volume 384-well assay plates (Greiner, 784075) to give a final reaction volume of 20 μl. IgG antibodies were labelled using the d2 labelling kit (CisBio, 62D2DPEA) as directed by the manufacturer. Streptavidin europium cryptate (CisBio, 610SAKLA, Lot#25C) was used at a final concentration of 1.8 ng active moiety (SA) per 20 μl reaction as recommended by the manufacturer. Biotinylated rCd4-His-FBG was prepared using EZ-link Sulfo-NHS-LC-Biotin reagent (Thermo Scientific, 21327) the extent of biotinylation was quantified using biotinylation fluorescence quantitation kit (Thermo Scientific, 46610). Where appropriate, supernatants containing scFv (prepared as described above for ELISA assays) were added to the 384-well assay plate at a final dilution of 1/20 (i.e. 1/5 dilution in assay buffer followed by addition of 5 μl diluted sample to the 20 μl FRET assay). […] Unless otherwise stated, biotinylated rCd4-His-FBG (biotin:protein ratio=1.8:1) was present at either 2.2 nM (in assays using the 2A5 IgG antibody) or 1 nM (in experiments using B12 IgG). Samples were incubated for approximately 1 h at room temperature and the FRET signal was determined using a BMG Pherastar instrument: excitation=320 nm; emission=620 nm and 665 nm; integration start time=60 μs; integration time=500 μs; 100 flashes per well. For competition assays containing culture supernatant, biotinylated rCd4-His-FBG antigen was pre-incubated with streptavidin europium cryptate for 45 min prior to addition of reagents to the assay plate. All FRET signals are presented as ΔR, where R=(E665/E620×104) and ΔR=(Rsample−Rbackground fluorescence).
Culture supernatants containing unlabelled scFv clones from affinity selected mutant libraries were tested for inhibition of the interaction between FBG and the fluorophore-labelled parental IgG antibody.

% inhibition of HTRF signal [%]	Binder
91	B1
91	B2
91	B3
91	B4
91	B5
91	B6
91	B7
91	B8
91	B9

Biological target: T2, human TNC rCd4-His-FBG (rat; human)
Experiment: as above

% inhibition by parent scFv [%]	Binder
19	B10

Biological target: T3, mouse TNC rCd4-His-FBG
Experiment: anti-FLAG capture DELFIA ELISA, scFv supernatant, biotinylated mouse rCd4-His-FBG
Protocol: E. coli clones harbouring scFv pSANG10 expression plasmids were induced in 96-well plates with auto-induction media as described previously (Schofield et al, 2007). E. coli supernatants were harvested for ELISA assays. ELISA used the DELFIA (dissociation enhanced lanthanide fluorescent immunoassay) system with Europium-labelled anti-FLAG antibody (Sigma, Aldrich, UK). Black immunosorb plates (Nunc) were coated overnight with anti-FLAG M2 antibody (Sigma, F3165, 5 μg/ml in PBS, 50 μl per well), in wells blocked by the addition of 2% milk powder, PBS (PBS-M, 300 μl per well). Plates were washed three times with PBS-T (PBS, 0.1% Tween-20) and three times with PBS followed by the addition of a 1:2 dilution of 96-well auto-induction culture supernatants containing expressed scFv in PBS-M (50 μl per well). The plates were incubated for 1 h, washed as above and biotinylated mouse or human rCd4-His-FBG (5 μg/ml in PBS-M, 50 μl) added to each well. Plates were incubated for a further 1 h, washed and Strepravidin-Eu added (Perkin Elmer, 1 μg/ml, PBS-M, 50 μl), incubated for 30 min, washed and DELFIA enhancement solution added (50 μl) and plates read on a Perkin Elmer Fusion plate reader (excitation=320 nm, emission 620 nm). The format of the assay is shown in.

fold improvement for mouse FBG binding (against the parent B12) [fold]	Binder
≥ 4	B1
≥ 4	B2
≥ 4	B3
≥ 4	B4
≥ 4	B5
≥ 4	B6
≥ 4	B7
≥ 4	B8
≥ 4	B9
